This note sets out measurements from article PMC9303552 (Angewandte Chemie (International Ed. in English), 2022).

One may read the Kd as the equilibrium constant for the complex coming apart. Higher therefore signals weaker binding.

The labels stand for the following.
B2: GST-CHIP (carboxyl terminus of Hsp70 interacting protein, full length) (enzyme, human, UniProt Q9UNE7 1-303, looked up)
chain: MKGKEEKEGGARLGAGGGSPEKSPSAQELKEQGNRLFVGRKYPEAAACYGRAITRNPLVAVYYTNRALCYLKMQQHEQALADCRRALELDGQSVKAHFFLGQCQLEMESYDEAIANLQRAYSLAKEQRLNFGDDIPSALRIAKKKRWNSIEERRIHQESELHSYLSRLIAAERERELEECQRNHEGDEDDSHVRAQQACIEAKHDKYMADMDELFSQVDEKRKKRDIPDYLCGKISFELMREPCITPSGITYDRKDIEEHLQRVGHFDPVTRSPLTQEQLIPNLAMKEVIDAFISENGWVEDY

Test [1] deals with T1, Tau 2N4R isoform (full-length Tau) (human, UniProt P10636-8 1-441). Kind of test: ITC. In general terms: ITC needs no label: the signal is the heat of the interaction.
Test [2] concerns the target T1, Tau 2N4R isoform (full-length Tau). Description: NMR titration.
Test [3] has as its target B2. Kind of test: NMR titration.

B1: isolated TPR domain of CHIP (domain or fragment, human)
chain: EKSPSAQELKEQGNRLFVGRKYPEAAACYGRAITRNPLVAVYYTNRALCYLKMQQHEQALADCRRALELDGQSVKAHFFLGQCQLEMESYDEAIANLQRAYSLAKEQRLNFGDDIPSALRIAKKKRWNSIEERR
Turning to B1, binding in test [1] was put at a Kd of 360 µM. In turn, B2 came in with a Kd in test [2] of 14 µM.

B3: Tau1-152 (domain or fragment, human, UniProt P10636-8 1-152, looked up)
chain: MAEPRQEFEVMEDHAGTYGLGDRKDQGGYTMHQDQEGDTDAGLKESPLQTPTEDGSEEPGSETSDAKSTPTAEDVTAPLVDEGAPGKQAAAQPHTEIPEGTTAEEAGIGDTPSLEDEAAGHVTQARMVSKSKDGTGSDDKKAKGADGKTKIA
With B3, in test [3], the binding result was “binds”.
